From the RNAGym collection of RNA variant scans (doi:10.1073/pnas.2313332121)
Fewer inactive variants are shown than the library holds.

B1: TPR 5TU (parent)
chain: GGAUCUUCUCGAUCUAACAAAAAAGACAAAUCUGCCACAAAGCUUGAGAGCAUCUUCGGAUGCAGAGGCGGCAGCCUUCGGUGGCGCGAUAGCGCCAACGUUCUCAACUAUGACACGCAAAACGCGUGCUCCGUUGAAUGGAGUUUAUCAUG

Variants of: B1
Assay: polymerase ribozyme fitness, log enrichment relative to wild type (log ratio); higher = more active; in vitro selection for triplet polymerase activity
Outline: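 Libraries of mutants in each subunit of a heterodimeric triplet polymerase ribozyme were generated by PCR and transcribed. In triplicate, each went through one in vitro selection round: annealing with biotinylated primer, partner subunit and triplets; frozen incubation at −7 °C; gel excision of extended constructs; streptavidin-bead capture; RT-PCR. Fitness, taken from Illumina sequencing of input and output libraries, is the logarithm of a genotype's enrichment over wild-type enrichment, averaged across replicates with inverse-variance weights. The logarithm is base 2, and genotypes needed ≥10 input reads and ≥1 read per output to be kept.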

Row | Variant | polymerase ribozyme fitness (log ratio)
1 | GGAUCUUCUCGAUCUAACUAAAAAGACAAAUCUGCCACAAAGCUUGAGAGCAUCUUCGGAUGCAGAGGCGGCAGCCUUCGGUGGCGCGUUAGCGCCAACGUUCUCAACUAUGACACGCAAAACGCGUGCUCCGUUUAAUGGAGUUUAUCAUG [A19U A89U G136U] | -3.55
2 | GGAUCUUCUCGAUCUAACUAAAAAGACAAAUCUGCCACAAAGCUUGAGAGCAUCUUCGGAUGCAGAGGUGGCAGCCUUCGGUGGCGCGAUACCGCCAACGUUCUCAACUAUGACACGCAAAACGCCUGCUCCGUUGAAUGGAGUUUAUCAUG [A19U C69U G92C G126C] | -1.04
3 | GGAUCUUCUCGAUCUAACUAAAAAGACAAAUCUGCCACAAAGCUUGAGAGCAUCUUCGGAUGCAGAGGGGGCAGCCUUCGGUGGUGCGAUAGCGCCAACGUUCUCAACUAUGACACGCAAAACGCGUGCUCCGGUGAAUGGAGUUUAUCAUU [A19U C69G C85U U134G G152U] | ≤ -4.2
4 | GGAUCUUCUCGAUCUAACUAAAAAGACAAAUCUGCCACAAAGCUUGAGAGCAUCUUGGGAUGCAGAGGCGGCAGCCUUCGGUGGCGCGAUAGCGUCAACGUUGGCAACUAUGACACGCAAAACGCGUGCUCCGUUGAAUGGAGUUUAUCAUG [A19U C57G C95U C103G U104G] | ≤ -4.2
5 | GGAUCUUCUCGAUCUAACUAAAAAGACAAAUCUGCCAAAAAGCUUGAGAGCAUUUUCGGAUGCAGAGGCGGCAGCCUUCGGUGGAGCGAUAGCGCCAACGUUCUCAAAUAUGACACGCAAAACGCGUGCUCCGUUGAAUGGAGUUUAUCAUG [A19U C38A C54U C85A C108A] | ≤ -4.2
6 | GGAUCUUCUCGAUCUAACUAAAAAGACAAAUAUGCCACAAAGCUUGAGAGCAUCUUCGGAUGCAGAGGCGGCAGCCUUCGGUGACGCGAUAGCGCCAACGUUCUCAACUAUGACACGCAAAACGCGUUCUUCGUUGGAUGGAGUUUAUCAUG [A19U C32A G84A G128U C131U A137G] | -3.73
7 | GGAUCUUCUCGAUCUAACUAAAAAGACAAAUCUGCCACAAAGCUUGAGAGCAUCUUCGGAUGUAGAGGCGGCAGCCUUCGGUGGCGCGAUAGCGCUAACGUUCUGAACUAUGACAAGCAAAACGCGUGCUCCGUUGAAUGGAGUUUAUCAUG [A19U C63U C96U C105G C116A] | -2.98
8 | GGAUCUUCUCGAUCUAACUAAAAAGACAAAUCUGCCACAAAGCUUGAGAGCAUCUUCGGAUGCAGAGGCGGCAGCUUUCGGUGGCGCGAUAGCGCCAACGUUCUCAACUAUGACACGCAAAACGCGUGCUUCGUUGAAUGGAGUUUAUCAUG [A19U C76U C131U] | 0.231
9 | GGAUCUUCUCGAUCUAACUAAAAAGACAAAUCUGCCAUAAAGCUUGAGCGCAUCUUCCGAUGCAGAGGCGGCAGCCUUUGGUGGCGCAAUAGCGCCCACGUUCUCAACUAUGACACGCAAAACGCGUGCUCCGUUGAAUGGAGUUUAUCAUG [A19U C38U A49C G58C C79U G88A A97C] | ≤ -4.2
10 | GGAUCUUCUCGAUCUAACUAAAAAGACAAAUCUGCCACAAAGCUUGAGAGCAUCUUCGGAUGCAGAGGGGGCAGCCUUCGGUGGCGCGAUAGCGCGAACGUUCGCAACUAUGACACGCAAAACGCGUGCUCCGUUGAAUGGAGUUUAUCAUG [A19U C69G C96G U104G] | -1.98
11 | GGAUCUUCUCGAUCUAACUAAAAAGACAAAUCUGCCACAAAGCUUGAGAGGAUCUUCGCAUGCAGAGGCGGCAGGCUUCGGUGGCGCAAUUGCGCUAACGUUCUCAACUAUGACACGCAAAACGCGUGCUCCGUUGAAUGCAGUUUAUCAUG [A19U C51G G59C C75G G88A A91U C96U G141C] | ≤ -4.2
12 | GGAUCUUCUCGAUCUAACUAAAAAGACAAAUCUGCCAGAAAGCUUGAGAGCAUCUUCGCAUGCAGAGGCGGCAGCCUUCGGUGGCACGAUAGCGCCAAUGUUCUCAACUAUGACACUAAAAACGCGAGCUCCGUUGAGUGGAGUUUAUCAUG [A19U C38G G59C G86A C99U G117U C118A U127A A138G] | ≤ -4.2
13 | GGAUCUUCUCGAUCUAACUAAAAAGAUAAAUCUGCAACAAACCUUGAGAGCAUCUUCGGAUGCAGAGGCGGCAGCCUUCGGUGGCACGAUAGCGCCAACCUUCUCAACUAUGACACGGAAAACGCGUGCUCCGUUGAAUGGAGUUUAUCAUG [A19U C27U C36A G42C G86A G100C C118G] | ≤ -4.2
14 | GGAUCUUCUCGAUCUAACUAAAAAGACAAAUCUGCCACAAAGCUUGAGAGCAUCUUCGGAUGCAGAGGCGGCAGCCUUCGGUGGCGCGAUAGCGCCAACGUUCUCGACUAUGACACGCAAAACGCGUGCUCCGUUGAAUGGACUUUAUCAUG [A19U A106G G143C] | -2.4
15 | GGAUCUUCUCGAUCUAACUAAAAAGACAAAUCUGCCACAAAGCUUGAGAGCAUCUUCGGAUGCAGAGGGGGUAGCCUUCGGUGACGCGAUAGCGCCAACGUUCUCAACUAUGACACGCAAAACGCGUGCUCCGUUGAAUGGAGUUUAUCAUG [A19U C69G C72U G84A] | -3.03
16 | GGAUCUUCUCGAUCUAACUAAAAAGACAAAUCUGCCACAAAGCUUGAGAGCAUCUUCGGAUGCAGAGGCGGCAGCCUUCGGUGGAGCGAUAGCGCCAACGUUCUCAACUAUGACACGCAAAACGCGUGCUCCGUUGAAUGGAGUUUAUCAUG [A19U C85A] | -1.33
17 | GGAUCUUCUCGAUCUAACUAAAAAGACAAAUCUGCCACAAAGCUUGAGAGCAUCUUCGGAUGCAGAGGCGGCAGCCUUCGGUGGGGCGAUAGCGCCAACGUUCUCAACUAUGACACGCAAAACGCGUGCUCCGUUGAAUGGAGUUUAUCAUG [A19U C85G] | -2.18
18 | GGAUCUUCUCGAUCUAACUAAAAAGACAAAUCUGCCACAAAGCUUGAGAGCAUCUUCGGAUGCAGAGGCGGCAGCCUUCGGUGGAGCGAUAGCGCCAACGUUCUCAACUAUGUCACGCAAAACGCGUGCUCCGUUGAAUGGAGUUUAUCAUG [A19U C85A A113U] | -3.44
19 | GGAUCUUCUCGAUCUAACUAAAAAGACAAAUCUGUCACAAAUCUUGAGAGCAUCGUCGGAUGCAGAAGCGGCAGCCUUCGGUGGGGCGAUAGCGCCCACGUUCUCAACUAUGAGACGCAAAACGCGUGCUCCGUUGAAUUGAGUUUAUCAUG [A19U C35U G42U U55G G67A C85G A97C C114G G140U] | ≤ -4.2
